Measurements taken from patent publication US20250163127A1 (published 2025).

T1: TIGIT (human, UniProt Q495A1)
T1 sequence: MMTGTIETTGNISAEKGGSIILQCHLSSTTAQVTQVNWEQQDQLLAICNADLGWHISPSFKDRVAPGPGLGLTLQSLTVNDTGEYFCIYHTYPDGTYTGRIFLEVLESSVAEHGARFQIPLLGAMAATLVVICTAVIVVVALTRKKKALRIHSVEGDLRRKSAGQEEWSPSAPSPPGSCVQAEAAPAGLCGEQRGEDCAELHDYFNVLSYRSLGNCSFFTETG

T2: human CD86 (human)
T2 chain: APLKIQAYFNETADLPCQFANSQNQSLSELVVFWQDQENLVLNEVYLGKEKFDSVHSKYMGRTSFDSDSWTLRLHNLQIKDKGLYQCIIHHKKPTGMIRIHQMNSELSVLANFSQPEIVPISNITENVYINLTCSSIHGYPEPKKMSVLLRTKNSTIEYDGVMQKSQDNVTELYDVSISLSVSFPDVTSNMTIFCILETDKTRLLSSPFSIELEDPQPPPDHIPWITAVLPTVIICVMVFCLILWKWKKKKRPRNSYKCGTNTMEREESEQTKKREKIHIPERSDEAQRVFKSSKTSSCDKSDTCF


Tests used:
Test in all cases: cell-based or functional assay
[1] = molecular target: T1, TIGIT
[2] = molecular target: PD-1 (human, UniProt Q15116)
[3] = molecular target: T2, human CD86
[4] = molecular target: CD2 (human, UniProt P06729)

Row | Binder | 100 nM IFN-gamma (pg/mL), SEB assay [1] | 100 nM IFN-gamma (pg/mL), SEB assay [2] | 100 nM IFN-gamma (pg/mL), SEB assay [3] | 100 nM IFN-gamma (pg/mL), SEB assay [4]
1 | CD155 665-CD58 3650-Fc (Fc fusion) WPPPGTGDVVVQAPTQVSGFLGDSVTLPCYLQVPNMEVTHVSQLTWARHGESGSMAVFHQTQGPWYAESKRLEFVAARLGAELRNASLRVFGLRAEDEGNYTCQFVTFPQRSRSVDIWLRVLGGGGSGGGGSGGGGSSQQIYGVVYGNVTFHVPSNVPLKEVLWKKQKDKVAELENSEFRAFSSFKNRVYLDTVSGSLTIYNLTSSDEDEYEMESPNITDTMKFFLYVLESGSGGGGSEPKSSDKTHTCPPCPAPEAEGAPSVFLFPPKPKDTLMISRTPEVTCVVVDVSHEDPEVKFNWYVDGVEVHNAKTKPREEQYNSTYRVVSVLTVLHQDWLNGKEYKCKVSNKALPAPIEKTISKAKGQPREPQVYTLPPSRDELTKNQVSLTCLVKGFYPSDIAVEWESNGQPENNYKTTPPVLDSDGSFFLYSKLTVDKSRWQQGNVFSCSVMHEALHNHYTQKSLSLSPG | 5850 pg/mL |  |  | 5850 pg/mL
2 | CD58 3650-CD155 665-Fc (Fc fusion) SQQIYGVVYGNVTFHVPSNVPLKEVLWKKQKDKVAELENSEFRAFSSFKNRVYLDTVSGSLTIYNLTSSDEDEYEMESPNITDTMKFFLYVLESGGGGSGGGGSGGGGSWPPPGTGDVVVQAPTQVSGFLGDSVTLPCYLQVPNMEVTHVSQLTWARHGESGSMAVFHQTQGPWYAESKRLEFVAARLGAELRNASLRVFGLRAEDEGNYTCQFVTFPQRSRSVDIWLRVLGSGGGGSEPKSSDKTHTCPPCPAPEAEGAPSVFLFPPKPKDTLMISRTPEVTCVVVDVSHEDPEVKFNWYVDGVEVHNAKTKPREEQYNSTYRVVSVLTVLHQDWLNGKEYKCKVSNKALPAPIEKTISKAKGQPREPQVYTLPPSRDELTKNQVSLTCLVKGFYPSDIAVEWESNGQPENNYKTTPPVLDSDGSFFLYSKLTVDKSRWQQGNVFSCSVMHEALHNHYTQKSLSLSPG | 6490 pg/mL |  |  | 6490 pg/mL

Continued, values first:

Row | 100 nM IFN-gamma (pg/mL), SEB assay [1] | 100 nM IFN-gamma (pg/mL), SEB assay [2] | 100 nM IFN-gamma (pg/mL), SEB assay [3] | 100 nM IFN-gamma (pg/mL), SEB assay [4] | Binder
3 | 7350 pg/mL | 7350 pg/mL | 7350 pg/mL |  | PD-L1 303-CD155 665-CTLA-4 3037-Fc (Fc fusion) FTVTVPKDLYVVEYGSNMTIECKFPVEKQLDLAALIVYWEMEGKDIIQFVHGEEDQKAQHSSYRQRARLLKDQLSLGNAALQITDVKLQDAGVYRCMISYGGGADYKRITVKVNAGGGGSGGGGSGGGGSWPPPGTGDVVVQAPTQVSGFLGDSVTLPCYLQVPNMEVTHVSQLTWARHGESGSMAVFHQTQGPWYAESKRLEFVAARLGAELRNASLRVFGLRAEDEGNYTCQFVTFPQRSRSVDIWLRVLGGGGSGGGGSGGGGSKAMHVAQPAVVFASSHGIASFVCEYASPWKATEVRVTVLRQADSQVTEVCAATYMTGNELTFLDDSICTGTSSGNQVNLTIQGLRAMDTGLYICKVEQMYPPPYLLGIGNGTQIYVIDPEPCPDSDGSGGGGSEPKSSDKTHTCPPCPAPEAEGAPSVFLFPPKPKDTLMISRTPEVTCVVVDVSHEDPEVKFNWYVDGVEVHNAKTKPREEQYNSTYRVVSVLTVLHQDWLNGKEYKCKVSNKALPAPIEKTISKAKGQPREPQVYTLPPSRDELTKNQVSLTCLVKGFYPSDIAVEWESNGQPENNYKTTPPVLDSDGSFFLYSKLTVDKSRWQQGNVFSCSVMHEALHNHYTQKSLSLSPG
4 | 4310 pg/mL |  | 4310 pg/mL |  | CD155 665-CTLA-4 3037-Fc (Fc fusion) WPPPGTGDVVVQAPTQVSGFLGDSVTLPCYLQVPNMEVTHVSQLTWARHGESGSMAVFHQTQGPWYAESKRLEFVAARLGAELRNASLRVFGLRAEDEGNYTCQFVTFPQRSRSVDIWLRVLGGGGSGGGGSGGGGSKAMHVAQPAVVFASSHGIASFVCEYASPWKATEVRVTVLRQADSQVTEVCAATYMTGNELTFLDDSICTGTSSGNQVNLTIQGLRAMDTGLYICKVEQMYPPPYLLGIGNGTQIYVIDPEPCPDSDGSGGGGSEPKSSDKTHTCPPCPAPEAEGAPSVFLFPPKPKDTLMISRTPEVTCVVVDVSHEDPEVKFNWYVDGVEVHNAKTKPREEQYNSTYRVVSVLTVLHQDWLNGKEYKCKVSNKALPAPIEKTISKAKGQPREPQVYTLPPSRDELTKNQVSLTCLVKGFYPSDIAVEWESNGQPENNYKTTPPVLDSDGSFFLYSKLTVDKSRWQQGNVFSCSVMHEALHNHYTQKSLSLSPG
